Experimental data taken from PMC2275077 (Nucleic Acids Research, 2008).

T1: TAP-tagged HMO1 (S. cerevisiae, UniProt Q03973 1-246)
T1 sequence: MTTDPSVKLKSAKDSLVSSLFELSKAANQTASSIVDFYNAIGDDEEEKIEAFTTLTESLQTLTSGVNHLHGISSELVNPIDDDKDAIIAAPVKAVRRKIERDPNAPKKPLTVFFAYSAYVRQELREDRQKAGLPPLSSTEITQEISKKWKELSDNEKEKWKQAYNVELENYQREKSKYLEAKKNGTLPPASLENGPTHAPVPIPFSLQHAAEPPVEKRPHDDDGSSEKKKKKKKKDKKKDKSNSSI

B1: TAF1 (natural protein)
chain: MVKQQGSGKTNLANEDEAYEAIFGGEFGSLEIGSYIGGDEGANSKDYTEHLPDAVDFEDEDELADDDDDLPEESDANLHPAMMTMGAYDDVNENGAVLGIDSNSLNMQLPEINGDLSQQFILEDDGGTPATSNALFMGMDANEIHLATETGVLDGSGANEIGHSQLSIGGVNGNDMSINGGFIMEPDMSDGKHKKATKLDLINHEKYLLKKYFPDFEKGKILKWNKLIYRRSVPYHWHSEISRVKKPFMPLNLKFKVQQDDKRLFNSRTISYVAPIYQGKNNLLQSNSSASRRGLIHVSIDELFPIKEQQKKRKIIHDEKTISEDLLIATDDWDQEKIINQGTSSTATLADSSMTPNLKFSGGYKLKSLIEDVAEDWQWDEDMIIDAKLKESKHAELNMNDEKLLLMIEKTNNLAQQKQQLDSSNLILPLNETILQQKFNLSNDDKYQILKKTHQTKVRSTISNLNIQHSQPAINLQSPFYKVAVPRYQLRHFHRENFGSHIRPGTKIVFSKLKARKRKRDKGKDVKESFSTSQDLTIGDTAPVYLMEYSEQTPVALSKFGMANKLINYYRKANEQDTLRPKLPVGETHVLGVQDKSPFWNFGFVEPGHIVPTLYNNMIRAPVFKHDISGTDFLLTKSSGFGISNRFYLRNINHLFTVGQTFPVEEIPGPNSRKVTSMKATRLKMIIYRILNHNHSKAISIDPIAKHFPDQDYGQNRQKVKEFMKYQRDGPEKGLWRLKDDEKLLDNEAVKSLITPEQISQVESMSQGLQFQEDNEAYNFDSKLKSLEENLLPWNITKNFINSTQMRAMIQIHGVGDPTGCGEGFSFLKTSMKGGFVKSGSPSSNNNSSNKKGTNTHSYNVAQQQKAYDEEIAKTWYTHTKSLSISNPFEEMTNPDEINQTNKHVKTDRDDKKILKIVRKKRDENGIIQRQTIFIRDPRVIQGYIKIKEQDKEDVNKLLEEDTSKINNLEELEKQKKLLQLELANLEKSQQRRAARQNSKRNGGATRTENSVDNGSDLAGVTDGKAARNKGKNTTRRCATCGQIGHIRTNKSCPMYSSKDNPASPK
B2: TAF11 (natural protein)
chain: MTEPQGPLDTIPKVNYPPILTIANYFSTKQMIDQVISEDQDYVTWKLQNLRTGGTSINNQLNKYPKYKYQKTRINQQDPDSINKVPENLIFPQDILQQQTQNSNYEDTNTNEDENEKLAQDEQFKLLVTNLDKDQTNRFEVFHRTSLNKTQVKKLASTVANQTISENIRVFLQAVGKIYAGEIIELAMIVKNKWLTSQMCIEFDKRTKIGYKLKKYLKKLTFSIIENQQYKQDYQSDSVPEDEPDFYFDDEEVDKRETTLGNSLLQSKSLQQSDHNSQDLKLQLIEQYNKLVLQFNKLDVSIEKYNNSPLLPEHIREAWRLYRLQSDTLPNAYWRTQGEGQGSMFR

Target: T1, TAP-tagged HMO1
Assay: TAP purification with immunoblot

| Binder | percent recovered with HMO1-TAP |
| --- | --- |
| B1 | ~0.01% |
| B2 | ~0.01% |
